Values belong to the binder of their own block, whether it stands above or below them.
Molecular target: T1, recombinant extracellular alpha-3 domain of MICA (allele 001), Baculovirus-expressed, C-terminal His tag (human, UniProt Q29983 205-297)
T1 construct: Expressed in Sf9 cells and purified by Ni2+ chelation with 8M urea, then dialysed; also called alpha-3 domain MICA protein; target MICA alpha-3 domain recombinant protein
T1 sequence: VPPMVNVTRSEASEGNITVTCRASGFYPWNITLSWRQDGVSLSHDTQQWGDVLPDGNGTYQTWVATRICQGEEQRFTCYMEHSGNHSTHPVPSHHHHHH
Assay: BLI (Octet RED96), antibody captured by anti-mouse IgG, antigen in solution, pH 7.4, 1:1 model
Experimental: Biomolecular interactions between antigen and antibody were directly measured by Bio-Layer Interferometry (BLI) using a Pall ForteBio Octet RED96 machine (Pall ForteBio, CA, USA). Real-time kinetic analyses were performed on the test MICA monoclonal antibodies 1F5 and 8C7, as well as two control antibodies, one of which could bind the alpha-3 MICA subdomain antigen (positive control) and one of which could not (negative control, binds other MICA subdomains), as previously determined by ELISA. The Octet RED96 apparatus operates under the principle of Bio-Layer Interferometry, a label-free technique that measures molecular interactions and complex formation. A key component of the technique is the optical biosensor whose tip is immersed in the fluids of the test well and then used to assay interference patterns between waves of light. Here, the ligand (monoclonal antibody) is localized to the surface of the biosensor through capture by previously bound anti-mouse IgG, while the analyte biomolecule (antigen) is kept in solution. Binding responses between ligand and analyte were measured and reported in real-time. Both association and dissociation kinetics were monitored and KD values were calculated. This model assumed a 1:1 interaction of ligand to analyte.

- Kd: ~6.81 nM
B1: antibody 8C7 (antibody, IgG1, V domains shown)
VH: QIQLVQSGPELKKPGETVKISCKASGYTFTNYGMNWVKQAPGKGLKWMGWINTNTGEPTYAEEFKGRFAFSLETSASTAYLQINNLKNEDTATYFCARSGGSSPFAYWGQGTLVTVSA
VL: DIVMTQAAPSVPVTPGESVSISCRSSKSLLQSNGNTFLYWFMQRPGQSPQLLIYRMSNLASGVPDRFSGSGSGTAFTLRISRVEAEDVGVYYCMQHLEYPFTFGGGTKLEIKR
notes: Mouse hybridoma monoclonal, IgG1 heavy chain and kappa light chain; Tested as hybridoma supernatant in ELISA and FACS; also called antibody from clone 8C7; hybridoma clone 8C7

- Kd: ~0.783 nM
B2: antibody 1F5 (antibody, IgG1, V domains shown)
VH: QIQLVQSGPELKKPGETVKISCKASGYTFTDYSVHWVKQAPGKGLKWMGWINTETGEPTYADDFKGRFAFSLETSASTAYLQINNLKNEDTATYFCARAGGNAFAYWGQGTLVTVSA
VL: DIVLTQSPASLAVSLGQRATISCRASKSVSTSGYSYMHWYQQKPGQPPKLLIYRASNLESGVPARFSGSGSGTDFTLNIHPVEEEDAATYYCQHSRELPLTFGAGTKLELKR
notes: Mouse hybridoma monoclonal, IgG1 heavy chain and kappa light chain; Tested as hybridoma supernatant in ELISA and FACS; also called IF5; antibody from clone 1F5

— patent US20160046689A1 (NOVELOGICS BIOTECHNOLOGY, published 2016)
